# From patent US20140242061
# B1: velaglucerase alfa (protein)
# chain: ARPCIPKSFGYSSVVCVCNATYCDSFDPPTFPALGTFSRYESTRSGRRMELSMGPIQANHTGTGLLLTLQPEQKFQKVKGFGGAMTDAAALNILALSPPAQNLLLKSYFSEEGIGYNIIRVPMASCDFSIRTYTYADTPDDFQLHNFSLPEEDTKLKIPLIHRALQLAQRPVSLLASPWTSPTWLKTNGAVNGKGSLKGQPGDIYHQTWARYFVKFLDAYAEHKLQFWAVTAENEPSAGLLSGYPFQCLGFTPEHQRDFIARDLGPTLANSTHHNVRLLMLDDQRLLLPHWAKVVLTDPEAAKYVHGIAVHWYLDFLAPAKATLGETHRLFPNTMLFASEACVGSKFWEQSVRLGSWDRGMQYSHSIITNLLYHVVGWTDWNLALNPEGGPNWVRNFVDSPIIVDITKDTFYKQPMFYHLGHFSKFIPEGSQRVGLVASQKNDLDAVALMHPDGSAVVVVLNRSSKDVPLTIKDPAVGFLETISPGYSIHTYLWRRQ
# Molecular target: T1, human macrophage mannose receptor (MMR), P22897
# T1 chain: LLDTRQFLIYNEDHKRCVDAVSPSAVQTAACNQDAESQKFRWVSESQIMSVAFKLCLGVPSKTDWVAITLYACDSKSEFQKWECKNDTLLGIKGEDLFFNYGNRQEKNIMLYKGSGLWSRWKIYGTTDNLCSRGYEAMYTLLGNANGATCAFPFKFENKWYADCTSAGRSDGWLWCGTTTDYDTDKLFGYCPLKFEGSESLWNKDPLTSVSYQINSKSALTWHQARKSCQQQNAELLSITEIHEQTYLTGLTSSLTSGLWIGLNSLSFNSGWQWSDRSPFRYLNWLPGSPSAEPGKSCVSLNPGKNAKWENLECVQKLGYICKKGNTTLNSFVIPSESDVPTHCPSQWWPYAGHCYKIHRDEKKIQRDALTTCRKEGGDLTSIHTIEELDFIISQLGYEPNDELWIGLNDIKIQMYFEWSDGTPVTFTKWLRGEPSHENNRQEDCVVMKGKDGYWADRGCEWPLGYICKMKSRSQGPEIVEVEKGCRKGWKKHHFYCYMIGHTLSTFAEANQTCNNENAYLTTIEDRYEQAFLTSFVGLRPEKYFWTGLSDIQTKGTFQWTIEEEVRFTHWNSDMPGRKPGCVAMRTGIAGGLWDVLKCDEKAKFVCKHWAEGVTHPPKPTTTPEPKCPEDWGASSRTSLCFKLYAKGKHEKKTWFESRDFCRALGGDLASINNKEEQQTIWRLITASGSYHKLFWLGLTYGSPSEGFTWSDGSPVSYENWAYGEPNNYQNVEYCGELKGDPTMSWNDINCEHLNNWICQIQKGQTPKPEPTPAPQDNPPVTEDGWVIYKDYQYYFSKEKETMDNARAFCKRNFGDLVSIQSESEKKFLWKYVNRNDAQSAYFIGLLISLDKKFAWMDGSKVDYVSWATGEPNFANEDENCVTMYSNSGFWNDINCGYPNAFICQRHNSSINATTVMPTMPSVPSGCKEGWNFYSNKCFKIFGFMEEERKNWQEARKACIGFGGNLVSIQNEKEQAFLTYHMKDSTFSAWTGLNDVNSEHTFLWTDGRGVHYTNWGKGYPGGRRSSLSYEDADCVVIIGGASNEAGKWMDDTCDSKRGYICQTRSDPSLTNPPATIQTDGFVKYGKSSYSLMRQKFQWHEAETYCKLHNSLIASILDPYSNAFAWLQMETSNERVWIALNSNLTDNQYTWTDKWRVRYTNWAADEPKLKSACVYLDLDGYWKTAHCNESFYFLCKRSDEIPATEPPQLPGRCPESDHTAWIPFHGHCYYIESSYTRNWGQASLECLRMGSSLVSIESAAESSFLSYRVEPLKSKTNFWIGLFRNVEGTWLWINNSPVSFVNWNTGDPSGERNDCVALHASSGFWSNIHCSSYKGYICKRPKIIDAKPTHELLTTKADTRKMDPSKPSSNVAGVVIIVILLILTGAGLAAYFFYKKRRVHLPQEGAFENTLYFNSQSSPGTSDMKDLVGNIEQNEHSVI
protein,measurement,value
B1,"internalization rate in U937-derived macrophages (4-MU-glc activity assay), relative to imiglucerase",velaglucerase alfa is internalized up to 2.5-fold more efficiently than imiglucerase
